From patent US7067474B1, “Agents for treating human illnesses based on β-catenin, and the production and use thereof” (Max-Delbruck-Centrum fur Molekulare Medizin, priority 1998, dated 2006)

T1: APC (20 amino acid repeats) (Homo sapiens, UniProt P25054)
T1 construct: for the amino acids Ser1259Asp 1400 (APC 20 amino acid repeats); expressed in transfected cells; host or cells: yeast (two-hybrid, Matchmaker, Clontech)
T1 sequence (P25054 1253-1394 limits assumed): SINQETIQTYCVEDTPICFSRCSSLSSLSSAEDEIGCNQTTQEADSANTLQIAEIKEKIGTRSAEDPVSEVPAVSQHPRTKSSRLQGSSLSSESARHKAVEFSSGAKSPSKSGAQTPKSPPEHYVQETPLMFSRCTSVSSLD

T2: APC (15 amino acid repeats) (Homo sapiens, UniProt P25054)
T2 construct: of human APC for the amino acids His1012–Glu1215 (APC 15 amino acid repeats); expressed in transfected cells; host or cells: yeast (two-hybrid, Matchmaker, Clontech)
T2 sequence (P25054 1006-1209 limits assumed): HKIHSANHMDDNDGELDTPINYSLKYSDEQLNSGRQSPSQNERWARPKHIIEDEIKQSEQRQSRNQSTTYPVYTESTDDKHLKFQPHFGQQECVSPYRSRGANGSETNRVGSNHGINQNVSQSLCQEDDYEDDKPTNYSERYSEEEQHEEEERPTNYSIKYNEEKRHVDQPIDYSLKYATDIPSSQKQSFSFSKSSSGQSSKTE


What was measured:
Assay type in all cases: binding
LEF-1 = biological target: T3, LEF-1 (Mus musculus, UniProt P27782); assay: yeast 2-hybrid: interaction of β-catenin mutants with LEF-1; details: yeast 2-hybrid, alanine mutants
T3 construct: the cDNA of LEF-1 for the amino acids 1–99; expressed in transfected cells; host or cells: yeast (two-hybrid, Matchmaker, Clontech)

[1] = biological target: T1, APC (20 amino acid repeats); assay: yeast 2-hybrid: interaction of β-catenin mutants with APC 20 amino acid repeats; details: yeast 2-hybrid, alanine mutants
Procedure, shortened: (§1)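 Alanine-substituted human β-catenin mutants (armadillo repeat 3 to C-terminus, from Leu218) fused to Gal4 activation domain; partner fragments fused to LexA: E-cadherin Gln773–Asp884, APC His1012–Glu1215 or Ser1259–Asp1400, conductin Ala342–Arg465. Interaction quantified by β-galactosidase reporter activity in yeast.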

[2] = biological target: T2, APC (15 amino acid repeats); assay: yeast 2-hybrid: interaction of β-catenin mutants with APC 15 amino acid repeats; details: yeast 2-hybrid, alanine mutants
Procedure, shortened: as §1

conductin = biological target: T4, conductin (Mus musculus, UniProt O88566); assay: yeast 2-hybrid: interaction of β-catenin mutants with conductin; details: yeast 2-hybrid, alanine mutants
T4 construct: conductin for the amino acids Ala342–ARG465; expressed in transfected cells; host or cells: yeast (two-hybrid, Matchmaker, Clontech)
Procedure, shortened: as §1

E-cadherin = biological target: T5, E-cadherin (Mus musculus, UniProt P09803); assay: yeast 2-hybrid: interaction of β-catenin mutants with E-cadherin; details: alanine mutants
T5 construct: E-cadherin for the amino acids Gin773–Asp884 (cytoplasmatic domain); expressed in transfected cells; host or cells: yeast (two-hybrid, Matchmaker, Clontech)
Experimental: The mutagenesis of β-catenin in the armadillo repeats 3–8 was carried out by means of the “mutagenesis kit” of the company Clontech according to the producer's record and the mutants were checked by sequencing (FIG. 5). In all mutants the original amino acid was substituted by alanine. For analyzing the interactions the cDNA of human β-catenin (armadillo repeat 3 up to the C-terminal end of the protein) coding for the amino acids Leu218–Leu7 μl or its mutants was cloned into the fusion vector for the activation domain of Gal-4 (pGAD424, Clontech). The cDNA for the binding domains of the interaction partners was cloned into the Lex-A fusion vector BTM 116. To this end, the cDNA of LEF-1 for the amino acids 1–99, conductin for the amino acids Ala342–ARG465; of human APC for the amino acids His1012–Glu1215 (APC 15 amino acid repeats) and for the amino acids Ser1259Asp 1400 (APC 20 amino acid repeats) and E-cadherin for the amino acids Gin773–Asp884 (cytoplasmatic domain) were amplified with the respective primers PCR. The interaction of the Lex-A hybrids with β-catenin and its mutants was quantified by means of the β-galactosidase reporter activity in the yeast 2-hybrid system (report: “Matchmaker”. Clontech) (Tab. 2 and FIG. 6).

T4 sequence (O88566 343-465 limits assumed): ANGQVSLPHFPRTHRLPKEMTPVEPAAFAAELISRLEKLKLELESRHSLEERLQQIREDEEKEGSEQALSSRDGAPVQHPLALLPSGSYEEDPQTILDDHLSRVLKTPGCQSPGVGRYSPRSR
T3 sequence (P27782 1-99): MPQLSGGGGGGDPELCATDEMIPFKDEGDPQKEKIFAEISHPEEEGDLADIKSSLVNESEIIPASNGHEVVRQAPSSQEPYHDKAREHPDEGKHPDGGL
T5 sequence (P09803 773-884): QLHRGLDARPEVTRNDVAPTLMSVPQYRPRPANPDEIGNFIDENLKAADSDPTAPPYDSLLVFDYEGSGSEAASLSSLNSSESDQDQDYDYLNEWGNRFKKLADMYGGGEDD

Row | Molecule | Interaction With LEF-1, share of wild type β-catenin interaction (LEF-1) | Interaction With APC-20, share of wild type β-catenin interaction [1] | Interaction With APC-15, share of wild type β-catenin interaction [2] | Interaction With Conductin, share of wild type β-catenin interaction (conductin) | Interaction With E-Cadherin, share of wild type β-catenin interaction (E-cadherin)
1 | Lys 292: human β-catenin mutant, Lys 292 substituted by alanine (arm 4) (protein, left off: large carriers; small tags and cut ends) LHNLSHHREGLLAIFKSGGIPALVKMLGSPVDSVLFYAITTLHNLLLHQEGAKMAVRLAGGLQKMVALLNKTNVAFLAITTDCLQILAYGNQESKLIILASGGPQALVNIMRTYTYEKLLWTTSRVLKVLSVCSSNKPAIVEAGGMQALGLHLTDPSQRLVQNCLWTLRNLSDAATKQEGMEGLLGTLVQLLGSDDINVVTCAAGILSNLTCNNYKNKMMVCQVGGIEALVRTVLRAGDREDITEPAICALRHLTSRHQEAEMAQNAVRLHYGLPVVVKLLHPPSHWPLIKATVGLIRNLALCPANHAPLREQGAIPRLVQLLVRAHQDTQRRTSMGGTQQQFVEGVRMEEIVEGCTGALHILARDVHNRIVIRGLNTIPLFVQLLYSPIENIQRVAAGVLCELAQDKEAAEAIEAEGATAPLTELLHSRNEGVATYAAAVLFRMSEDKPQDYKKRLSVELTSSLFRTEPMAWNETADLGLDIGAQGEPLGYRQDDPSYRSFHSGGYGQDALGMDPMMEHEMGGHHPGADYPVDGLPDLGHAQDLMDGLPPGDSNQLAWFDTDL | — (Interactions marked by — correspond to 60–100% of the wild type interaction) | 28% | — (Interactions marked by — correspond to 60–100% of the wild type interaction) | 5% | — (Interactions marked by — correspond to 60–100% of the wild type interaction)
2 | Lys 394: human β-catenin mutant, Lys 394 substituted by alanine (arm 7) (protein, left off: large carriers; small tags and cut ends) LHNLSHHREGLLAIFKSGGIPALVKMLGSPVDSVLFYAITTLHNLLLHQEGAKMAVRLAGGLQKMVALLNKTNVKFLAITTDCLQILAYGNQESKLIILASGGPQALVNIMRTYTYEKLLWTTSRVLKVLSVCSSNKPAIVEAGGMQALGLHLTDPSQRLVQNCLWTLRNLSDAATAQEGMEGLLGTLVQLLGSDDINVVTCAAGILSNLTCNNYKNKMMVCQVGGIEALVRTVLRAGDREDITEPAICALRHLTSRHQEAEMAQNAVRLHYGLPVVVKLLHPPSHWPLIKATVGLIRNLALCPANHAPLREQGAIPRLVQLLVRAHQDTQRRTSMGGTQQQFVEGVRMEEIVEGCTGALHILARDVHNRIVIRGLNTIPLFVQLLYSPIENIQRVAAGVLCELAQDKEAAEAIEAEGATAPLTELLHSRNEGVATYAAAVLFRMSEDKPQDYKKRLSVELTSSLFRTEPMAWNETADLGLDIGAQGEPLGYRQDDPSYRSFHSGGYGQDALGMDPMMEHEMGGHHPGADYPVDGLPDLGHAQDLMDGLPPGDSNQLAWFDTDL | — (Interactions marked by — correspond to 60–100% of the wild type interaction) | — (Interactions marked by — correspond to 60–100% of the wild type interaction) | — (Interactions marked by — correspond to 60–100% of the wild type interaction) | 42% | — (Interactions marked by — correspond to 60–100% of the wild type interaction)
